Data on 1 protein can be found in PMC4419654, “LSD1 and HY5 antagonistically regulate red light induced-programmed cell death in Arabidopsis” (Frontiers in Plant Science, 2015).

The series concerns the molecule itself. In words: immunoblot of plant extract made without DTT; total protein of RL-treated WT plants extracted without DTT; the legend calls it an immunoprecipitation analysis; dimer and monomer LSD1 detected. In general terms: A western blot detects proteins with antibodies after separation by electrophoresis.

B1: lesion simulating disease 1 (LSD1) (natural protein, UniProt P94077 1-189, looked up)
chain: MKVADMQDQLVCHGCRNLLMYPRGASNVRCALCNTINMVPPPPPPHDMAHIICGGCRTMLMYTRGASSVRCSCCQTTNLVPAHSNQVAHAPSSQVAQINCGHCRTTLMYPYGASSVKCAVCQFVTNVNMSNGRVPLPTNRPNGTACPPSTSTSTPPSQTQTVVVENPMSVDESGKLVSNVVVGVTTDKK
notes: lesion simulating disease 1 (LSD1), C2C2 zinc finger protein with three zinc finger domains, Arabidopsis; detected with LSD1 antibody (Agrisera); source: endogenous, Arabidopsis WT plant total protein extract
As a reminder, the stoichiometry N is a count of units in the complex or per binding partner. Turning to B1, the “stoichiometry N” value was determined as 2.
